Experimental findings from paper PMC13086964 (Nature Communications, 2026) are described below.

Test [1] has as its target T1, purified recombinant His-USP7, full-length (human, UniProt Q93009 1-1102).
T1 construct: human USP7, recombinant, full-length; also called human recombinant USP7; source: bought: R&D Systems (# E-519)
In words: pull-down; GST-FAN1-NTD on Glutathione Sepharose beads, 0.5 µg recombinant His-USP7, 1 h at 4 °C in PBS-1% Triton; washes with 300 mM NaCl; immunoblotting. The note with it: both partners purified.

Test [2] has as its target T2, recombinant full length His6-MBP-FAN1-His6 (human, UniProt Q9Y2M0 1-1017).
T2 construct: human FAN1, full length; Tag ends are read from the printed name His6-MBP-FAN1-His6; also called MBP-His-tagged FAN1; recombinant human FAN1; source: E. coli BL21, purified (HisTrap, MBPTrap, desalting); not shown: His6, N-terminal, kept; MBP, N-terminal, kept; His6, C-terminal, kept
T2 sequence (looked up): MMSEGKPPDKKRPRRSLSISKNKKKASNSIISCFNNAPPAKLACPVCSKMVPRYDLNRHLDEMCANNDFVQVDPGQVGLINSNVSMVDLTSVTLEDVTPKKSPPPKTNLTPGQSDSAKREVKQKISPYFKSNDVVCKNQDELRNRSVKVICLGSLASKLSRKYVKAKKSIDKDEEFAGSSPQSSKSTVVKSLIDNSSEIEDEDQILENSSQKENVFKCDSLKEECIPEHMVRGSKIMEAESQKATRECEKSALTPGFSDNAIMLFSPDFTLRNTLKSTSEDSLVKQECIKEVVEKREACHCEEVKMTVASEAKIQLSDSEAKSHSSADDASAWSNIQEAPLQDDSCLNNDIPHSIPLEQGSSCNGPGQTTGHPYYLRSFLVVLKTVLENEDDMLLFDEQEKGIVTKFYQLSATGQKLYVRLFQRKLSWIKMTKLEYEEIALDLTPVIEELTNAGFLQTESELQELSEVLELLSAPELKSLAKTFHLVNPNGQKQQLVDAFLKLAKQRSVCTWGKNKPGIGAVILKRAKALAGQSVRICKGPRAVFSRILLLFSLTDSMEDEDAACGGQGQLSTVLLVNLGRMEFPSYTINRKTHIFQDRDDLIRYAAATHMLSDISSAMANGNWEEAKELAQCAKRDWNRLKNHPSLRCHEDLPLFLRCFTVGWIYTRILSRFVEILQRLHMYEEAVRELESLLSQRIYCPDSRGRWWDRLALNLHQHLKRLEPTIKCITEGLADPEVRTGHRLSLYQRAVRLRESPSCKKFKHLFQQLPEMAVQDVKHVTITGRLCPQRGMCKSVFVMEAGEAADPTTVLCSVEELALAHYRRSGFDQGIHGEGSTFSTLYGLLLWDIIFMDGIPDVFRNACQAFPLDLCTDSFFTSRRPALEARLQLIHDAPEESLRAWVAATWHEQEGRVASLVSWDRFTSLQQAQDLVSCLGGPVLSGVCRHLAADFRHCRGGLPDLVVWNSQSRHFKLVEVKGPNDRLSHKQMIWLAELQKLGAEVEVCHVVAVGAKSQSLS
Put plainly: pull-down; in vitro streptavidin pull-down with recombinant biotin-tagged USP7 TRAF-like or UBL domains and MBP-His-tagged FAN1 (Figure S3A). The settings on record: both partners purified.

T1 sequence (Q93009 whole entry): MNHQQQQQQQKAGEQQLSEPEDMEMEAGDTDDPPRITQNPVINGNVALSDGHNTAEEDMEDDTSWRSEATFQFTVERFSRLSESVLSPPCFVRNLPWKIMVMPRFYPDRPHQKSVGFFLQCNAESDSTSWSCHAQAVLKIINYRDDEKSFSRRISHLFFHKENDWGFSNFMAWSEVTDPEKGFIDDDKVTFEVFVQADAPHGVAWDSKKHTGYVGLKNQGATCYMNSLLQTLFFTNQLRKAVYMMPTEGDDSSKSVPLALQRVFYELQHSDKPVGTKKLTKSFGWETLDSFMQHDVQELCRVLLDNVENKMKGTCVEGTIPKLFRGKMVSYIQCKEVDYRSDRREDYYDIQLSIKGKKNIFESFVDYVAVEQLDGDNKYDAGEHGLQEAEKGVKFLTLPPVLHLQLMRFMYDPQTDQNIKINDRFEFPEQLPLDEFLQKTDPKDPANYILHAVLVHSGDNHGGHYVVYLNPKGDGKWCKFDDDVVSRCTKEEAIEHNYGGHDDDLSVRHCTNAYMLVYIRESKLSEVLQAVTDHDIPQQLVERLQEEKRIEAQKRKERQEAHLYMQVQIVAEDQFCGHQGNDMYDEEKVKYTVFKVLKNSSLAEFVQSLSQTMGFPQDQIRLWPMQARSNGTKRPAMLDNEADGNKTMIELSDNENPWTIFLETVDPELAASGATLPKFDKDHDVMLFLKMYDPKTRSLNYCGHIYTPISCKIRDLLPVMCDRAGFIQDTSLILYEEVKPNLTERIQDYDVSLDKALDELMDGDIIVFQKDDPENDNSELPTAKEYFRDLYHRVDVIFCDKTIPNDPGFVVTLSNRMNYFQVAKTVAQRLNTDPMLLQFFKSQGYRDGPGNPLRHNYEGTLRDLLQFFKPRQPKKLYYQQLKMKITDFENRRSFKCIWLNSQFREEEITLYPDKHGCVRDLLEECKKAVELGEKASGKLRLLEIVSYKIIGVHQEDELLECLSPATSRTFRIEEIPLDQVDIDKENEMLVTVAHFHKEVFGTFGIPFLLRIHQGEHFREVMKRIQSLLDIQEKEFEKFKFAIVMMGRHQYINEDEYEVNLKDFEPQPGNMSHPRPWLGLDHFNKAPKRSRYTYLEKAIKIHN

B1: GST-FAN1-NTD (aa 1-372) (domain or fragment, human, UniProt Q9Y2M0 1-372, looked up)
chain: MMSEGKPPDKKRPRRSLSISKNKKKASNSIISCFNNAPPAKLACPVCSKMVPRYDLNRHLDEMCANNDFVQVDPGQVGLINSNVSMVDLTSVTLEDVTPKKSPPPKTNLTPGQSDSAKREVKQKISPYFKSNDVVCKNQDELRNRSVKVICLGSLASKLSRKYVKAKKSIDKDEEFAGSSPQSSKSTVVKSLIDNSSEIEDEDQILENSSQKENVFKCDSLKEECIPEHMVRGSKIMEAESQKATRECEKSALTPGFSDNAIMLFSPDFTLRNTLKSTSEDSLVKQECIKEVVEKREACHCEEVKMTVASEAKIQLSDSEAKSHSSADDASAWSNIQEAPLQDDSCLNNDIPHSIPLEQGSSCNGPGQTTGH
notes: also called GST-tagged FAN1; source: E. coli BL21-CodonPlus RIL, purified from soluble extracts on Glutathione Sepharose beads
Regarding B1, the binding result in test [1] was “binds”.

B2: USP7 UBL domain (residues 520-1067), biotinylated (domain or fragment, human, UniProt Q93009 520-1067, looked up)
chain: RESKLSEVLQAVTDHDIPQQLVERLQEEKRIEAQKRKERQEAHLYMQVQIVAEDQFCGHQGNDMYDEEKVKYTVFKVLKNSSLAEFVQSLSQTMGFPQDQIRLWPMQARSNGTKRPAMLDNEADGNKTMIELSDNENPWTIFLETVDPELAASGATLPKFDKDHDVMLFLKMYDPKTRSLNYCGHIYTPISCKIRDLLPVMCDRAGFIQDTSLILYEEVKPNLTERIQDYDVSLDKALDELMDGDIIVFQKDDPENDNSELPTAKEYFRDLYHRVDVIFCDKTIPNDPGFVVTLSNRMNYFQVAKTVAQRLNTDPMLLQFFKSQGYRDGPGNPLRHNYEGTLRDLLQFFKPRQPKKLYYQQLKMKITDFENRRSFKCIWLNSQFREEEITLYPDKHGCVRDLLEECKKAVELGEKASGKLRLLEIVSYKIIGVHQEDELLECLSPATSRTFRIEEIPLDQVDIDKENEMLVTVAHFHKEVFGTFGIPFLLRIHQGEHFREVMKRIQSLLDIQEKEFEKFKFAIVMMGRHQYINEDEYEVNLKDFEPQP
modifications: biotin (on the AviTag)
notes: human USP7 UBL domain, residues 520-1067; p28BIOH-LIC vector; also called USP7 UBL domains; source: E. coli BL21(DE3)-pBirAcm, purified (TALON, SEC); not shown: AviTag, N-terminal, kept
As for B2, the binding result in test [2] is “binds”.
